Measurements taken from paper PMC3457645.

Tests used:
Assay in all cases: purified protein
[1] = substrate: CCCCCC(O)/C=C/C=O; conditions: NAD+
[2] = substrate: CCCCCCCC=O; format: biochemical, Homo sapiens; conditions: NAD+
[3] = substrate: CCCCCC=O; format: biochemical, Homo sapiens; conditions: NAD+
[4] = substrate: CC(=O)Oc1ccc([N+](=O)[O-])cc1; format: biochemical, Homo sapiens
[5] = substrate: CC=O; format: biochemical, Homo sapiens; conditions: NAD+
[6] = substrate: O=Cc1ccccc1; format: biochemical, Homo sapiens; conditions: NAD+

B1: ALDH3B1 (Homo sapiens) (protein)
chain: MDPLGDTLRRLREAFHAGRTRPAEFRAAQLQGLGRFLQENKQLLHDALAQDLHKSAFESEVSEVAISQGEVTLALRNLRAWMKDERVPKNLATQLDSAFIRKEPFGLVLIIAPWNYPLNLTLVPLVGALAAGNCVVLKPSEISKNVEKILAEVLPQYVDQSCFAVVLGGPQETGQLLEHRFDYIFFTGSPRVGKIVMTAAAKHLTPVTLELGGKNPCYVDDNCDPQTVANRVAWFRYFNAGQTCVAPDYVLCSPEMQERLLPALQSTITRFYGDDPQSSPNLGRIINQKQFQRLRALLGCGRVAIGGQSDESDRYIAPTVLVDVQEMEPVMQEEIFGPILPIVNVQSLDEAIEFINRREKPLALYAFSNSSQVVKRVLTQTSSGGFCGNDGFMHMTLASLPFGGVGASGMGRYHGKFSFDTFSHHRACLLRSPGMEKLNALRYPPQSPRRLRMLLVAMEAQGCSC
- Km [1]: 52 ± 5 µM
- Vmax [1]: 0.653 µmol/min/mg
- Km [2]: 8 ± 2 µM
- Vmax [2]: 1.24 µmol/min/mg
- Km [3]: 62 ± 8 µM
- Vmax [3]: 0.679 µmol/min/mg
- Km [4]: 3600 ± 250 µM
- Vmax [4]: 1.32 µmol/min/mg
- Km [5]: 23300 ± 1500 µM
- Vmax [5]: 0.315 µmol/min/mg
- Km [6]: 46 ± 11 µM
- Vmax [6]: 0.129 µmol/min/mg
